Assays:
[1] = biological target: MsDps2ΔN15 (MsDps2 lacking 15 amino acids from the N-terminus) (Mycobacterium smegmatis); assay: native gel or EMSA; 10% native gel; BSA and ferritin as markers; oligomeric state of the purified protein
[2] = biological target: MsDps2 protein (second Dps homologue of Mycobacterium smegmatis) (Mycobacterium smegmatis); assay: as above
[3] = biological target: MsDps2 protein (second Dps homologue of Mycobacterium smegmatis) (Mycobacterium smegmatis); assay: negative-stain transmission electron microscopy; MsDps2 in 20 mM Tris, 200 mM NaCl on copper grids, stained with uranyl acetate, 80 kV, 50,000x

Row | stoichiometry N [1] | stoichiometry N [2] | stoichiometry N [3] | Substance
1 | 12 |  |  | MsDps2ΔN15 (MsDps2 lacking 15 amino acids from the N-terminus) (domain or fragment)
2 |  | 12 | 12 | MsDps2 protein (second Dps homologue of Mycobacterium smegmatis) (natural protein)

From PMC2779847
